Our source for the Kd values is patent publication US20220089772A1 (published 2022).

Assay [1] concerns the target T1, Cynomolgus glycopeptide (biotinylated) (biotinylated; glycosylated (glycan and sites not stated)).
T1 peptide: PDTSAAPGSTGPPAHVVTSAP
Kind of assay: SPR; avid; apparent KD, FIG. 19B. A general note: SPR reads the build-up and loss of mass on a sensor chip optically.

For assay [2], the target named is T2, Human glycopeptide (biotinylated) (biotinylated; glycosylated (glycan and sites not stated)).
T2 peptide: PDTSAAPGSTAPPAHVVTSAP
Kind of assay: SPR; avid; apparent KD, FIG. 19A.

B1: monoclonal antibody GO2 (5F7) (antibody, V domains shown)
VH: QVQLQQSDAELVKPGASVKISCKASGYTFTDHAIHWVKQRPEQGLEWIGYFSPGNDDIHYNEKFEGKATLTADKSSSTAYMQLNSLTSEDSAVYFCKRSYDKDFDCWGQGTTLTVSS
VL: DIVMSQSPSSLGVSVGEKVTMSCKSSQSLLYSTNQKNYLAWYQQKPGQSPKLLIYWVSNRKSGVPDRFTGSGSGTDFTLTISSVKAEDLAVYYCQQYYRYPLTFGAGTKLELK
Take B1: the results for the Kd in assay [1] and in assay [2] were 56 nM and 253 nM, respectively.
